Reference: patent US20240158785A1 (Chugai, published 2024)
Numbering of substitutions follows the chain as printed.

T1: human IL-6 receptor (human, UniProt P08887 20-357, limits assumed, biotin-labeled in the ELISA and Octet assays (position not given))
T1 construct: also called hIL-6R; biotin-labeled hIL-6R
T1 sequence: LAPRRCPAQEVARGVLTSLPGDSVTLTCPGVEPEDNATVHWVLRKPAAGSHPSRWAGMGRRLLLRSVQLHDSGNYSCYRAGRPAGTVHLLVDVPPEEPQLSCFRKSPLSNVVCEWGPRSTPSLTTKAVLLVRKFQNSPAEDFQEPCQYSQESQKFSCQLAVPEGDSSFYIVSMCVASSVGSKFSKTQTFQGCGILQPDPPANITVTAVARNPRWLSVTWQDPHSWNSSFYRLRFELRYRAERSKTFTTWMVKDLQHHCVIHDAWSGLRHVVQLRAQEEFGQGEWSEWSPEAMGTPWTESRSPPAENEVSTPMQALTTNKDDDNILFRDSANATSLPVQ

B1: 6RAD2C1-4_001 (antibody, human IgG1, lambda, V domains shown)
VH: EVQLVESGGDLVKPGGGLRLSCAASGFTFSGHTMNWVRQAPGKGLEWVSSISSRSNYIYYADSVKGRFTISRDNAKNSLYLQMNSLRAEDTAVYYCARYGRLHDRNWVFDYWGQGTLVTVSS
VL: QSALTQPPSASGSPGQTVTISCTGTSTDVGDYNYVSWYQQHPGKAPKLMIYQVSKKPSGVPDRFSGSKSGNTASLTVSGLQAEDEADYFCSSRSYGAGVVFGGGTKLTVLG
notes: also called 6RAD2C1-4_01
B2: 6RDL3C1-4_085 (antibody, human IgG1, lambda, V domains shown)
VH: B1 VH
VL: B1 VL
notes: also called 6RDL3C1-4_85
B3: 6RAD2C1-4_076 (antibody, human IgG1, lambda, V domains shown)
VH: B1 VH with H32Y, N56S, Y59D, R101A, H103G, D104Q
VL: QSALTQPPSASGSPGQTVTISCTGTSTDVGDYNYVSWYQQHPGKAPKLMIYQTSKRPSGVPDRFSGSKSGNTASLTVSGLQAEDEADYFCSSRSIKHPVFGGGTKLTVLG
notes: also called 6RAD2C1-4_76
B4: 6RAD2C1-4_011 (antibody, human IgG1, lambda, V domains shown)
VH: B1 VH with N56S, R101A, H103G, D104Q, R105M
VL: B1 VL with Q52S, K56R, Y95S, G96S, A97M, G98N, V100L
notes: also called 6RAD2C1-4_11
B5: 6RAD2C1-4_026 (antibody, human IgG1, lambda, V domains shown)
VH: B1 VH with H32Y, I58A, Y59H, H103G
VL: B1 VL with D31A, Q52K, S92L, S94A, Y95A, G96T, A97T, V100L
notes: also called 6RAD2C1-4_26
B6: 6RAD2C1-4_005 (antibody, human IgG1, lambda, V domains shown)
VH: B1 VH with G31T, N56S, Y59H, Y99F, R101K, H103G, D104E
VL: B1 VL with S92V, Y95D, A97H, V99P, V100M
notes: also called 6RAD2C1-4_05
B7: 6RNMSC1-2_F02 (antibody, human IgG1, V domains shown)
VH: QVQLVQSGAEVKKPGSSVKVSCKASGGTFSSYAISWVRQAPGQGLEWMGGIIPIFGTANYAQKFQGRVTITADESTSTAYMELSSLRSEDTAVYYCARDAPVVARPRGAFDIWGQGTMVTVSS
VL: DIVMTQTPLSSPVTLGQPASISCRSSQSLVHSDGNTYLSWLQQRPGQPPRLLIHEISNRFSGVPDRFSGSGAGTNFTLKISRVEAEDVGVYYCMQATQFPRTFGQGTKVEIK
notes: Variable region genes were inserted into a human IgG1/Kappa expression plasmid; also called clone 6RNMSC1-2_F02; antibody 6RNMSC1-2_F02
B8: HSADSA1-6_020 (Fab, V domains shown)
VH: EVQLVESGGDLVKPGGGLRLSCAASGFTFSSHTMNWVRQAPGKGLEWVSSISSRSNHATYADSVKGRFTISRDNAKNSLYLQMNSLRAEDTAVYYCARFGKKGRYLWVFDYWGQGTLVTVSS
VL: QSALTQPPSASGSPGQTVTISCTGTSSDVGDYNYVSWYQQHPGKAPKLMIYYVSKRPSGVPDRFSGSKSGNTASLTVSGLQAEDEADYFCSLTTDSLNPVFGGGTKLTVL
notes: also called clone HSADSA1-6_020
B9: 6RAD2C1-4_030 (antibody, human IgG1, lambda, V domains shown)
VH: B1 VH with G31S, H32Y, N56G, I58A, Y99F, R101A, H103N, D104T, R105L
VL: B1 VL with S92T, S94T, Y95A, G96N, V100L
notes: also called 6RAD2C1-4_30
B10: GC413 (antibody, V domains shown)
VH: QVQLVQSGAEVKKPGASVKVSCKASGYTFTDYEMHWIRQPPGQGLEWIGAIDPKTGDTAYSQKFKGRVTLTADKSTSTAYMELSSLTSEDTAVYYCTRFYSYTYWGQGTLVTVSS
VL: DIVMTQSPLSLPVTPGEPASISCRSSQSLVHSNRNTYLHWYQQKPGQAPRLLIYKVSNRFSGVPDRFSGSGSGTDFTLKISRVEAEDVGVYYCSQNTHVPPTFGQGTKLEIK
notes: also called anti-human glypican 3 antibody GC413; negative control

Experiments:
human IL-6 receptor [1] = target: T1, human IL-6 receptor; test: SPR (Biacore T200), hIL-6R amine-coupled on CM5, antibody as analyte, equilibrium values, 1 mM ATP, 25 C; 1 mM ATP; Biacore, hIL-6R on CM5, antibody concentration series, 25 C
Protocol: The running buffer used was 20 mmol/L ACES, 150 mmol/L NaCl, 0.05% (w/v) Tween20, pH 7.4. The assay was performed at 25° C. hIL-6R was immobilized onto Sensor chip CM5 by amine coupling, and interacted with the antibodies as an analyte for 120 seconds to observe changes in the amount of binding. Antibodies were diluted with the running buffer or the running buffer added with any one of ATP, ADP, AMP, cAMP, and adenosine (ADO). The final concentration of each small molecule was adjusted to 1 mM, and the final concentration of the antibody was adjusted to 1 μM. Meanwhile, under the 1 mM ATP condition, the assay was carried out with a series of stepwise antibody concentrations. The dissociation constant KD (mol/L) of each clone for hIL-6R was calculated from a plot of equilibrium values against antibody concentration. The parameters were calculated using the Biacore T200 Evaluation Software (GE Healthcare).

human IL-6 receptor [2] = target: T1, human IL-6 receptor; test: SPR (Biacore T200), antibody captured on protein A, hIL-6R as analyte, 100 µmol/L kynurenine, 25 C; 100 µmol/L kynurenine; Biacore, antibody captured, hIL-6R as analyte
Protocol: An appropriate amount of protein A (Invitrogen) was immobilized onto Sensor chip CM5 (GE Healthcare) by the amine coupling method. The antibody of interest was captured onto the sensor chip, and the antigen hIL-6R was allowed to interact. […] The interaction with the antigen hIL-6R was measured at 25° C. hIL-6R was diluted with the running buffer, the running buffer containing 100 μmol/L kynurenine, or, as a control, the running buffer containing 10 mmol/L ATP.
Then, the running buffer was run at a flow rate of 10 μL/min for one minute to observe the dissociation of hIL-6R from the antibody. Next, 10 mmol/L glycine-HCl, pH 1.5, was injected at a flow rate of 30 μL/min for 30 seconds to regenerate the sensor chip. […] Each parameter was calculated using Biacore T200 Evaluation Software (GE Healthcare).

human serum albumin = target: T2, human serum albumin (human, UniProt P02768 25-609, biotin-labeled antigen (position not given)); test: phage ELISA: biotin-labeled HSA on a streptavidin plate, purified Fab-displaying phage, HRP anti-M13 antibody, absorbance 450 nm; with or without 10 mM ATP and adenosine
T2 construct: also called HSA

human IL-6 receptor [3] = target: T1, human IL-6 receptor; test: ELISA: biotin-labeled hIL-6R on a streptavidin plate, purified IgG, absorbance 450 nm; with 1 mM kynurenine, tryptophan, phenylalanine, anthranilic acid, 3-hydroxykynurenine, kynurenic acid, or none (Table 14)
Protocol: The antigen used was biotin-labeled hIL-6R.
First, a StreptaWell 96 microtiter plate (Roche) was coated with 100 μL of PBS containing biotin-labeled antigens at room temperature for one hour or longer. […] 100 μL of each of the purified IgGs prepared at 2.5 μg/mL using Sample Buffer containing small molecules at the final concentrations shown in Table 14 were added to each well, and the plate was let still at room temperature for one hour to allow each IgG to bind to the antigen present in each well. After washing with Wash Buffer containing amino acids and amino acid metabolites at the final concentrations shown in Table 14, HRP-conjugated anti-human IgG antibody (BIOSOURCE) diluted with Sample Buffer containing amino acids and amino acid metabolites was added to each well, and the plate was incubated for one hour. After washing with Wash Buffer containing the respective amino acids and amino acid metabolites, the chromogenic reaction of TMB single solution (ZYMED) added in each well was terminated by adding sulfuric acid.

| Binder | Kd (human IL-6 receptor [1]) [nM] | other results |
| --- | --- | --- |
| B1 | 300 |  |
| B2 | 390 |  |
| B3 | 250 |  |
| B4 | 230 |  |
| B5 | 210 |  |
| B6 | 340 |  |
| B7 |  | Kd (human IL-6 receptor [2]): 1500 nM |
| B8 |  | binding result (human serum albumin): binds |
| B9 | 330 |  |
| B10 |  | binding result (human IL-6 receptor [3]): no binding (tested: 2.5 µg/mL) |
